Literature values in paper PMC11939847.

Target: BRD4 ET (Homo sapiens) (UniProt O60885)
Assay: SPR

Which Kd does the source give for LKIRL peptide here?
The Kd was 145 nM.
